Experimental data: the nanobody polyreactivity screen of Harvey et al. (2022)

Assay: yeast display, Sf9 membrane polyspecificity reagent, FACS + sequencing; frameworks hold sequencing errors
Procedure, shortened: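 After 36–48 hours of galactose induction, yeast (Saccharomyces cerevisiae BJ5465) displaying a synthetic nanobody library were stained at 4 °C for 1 hour with 10% biotinylated, detergent-solubilized Sf9 membrane reagent. Streptavidin microbeads enriched the stained cells before FACS sorting into low and high (top ~1%) gates on anti-HA and streptavidin fluorescence. Each clone's polyreactivity label reflects its gate of origin.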

| Sequence | polyreactivity (PSR sort gate) |
| --- | --- |
| QVQLVESGGGLVQAGGSLRLSCAASGFTLEFYAMGWYRQAPGKERELVAAISKSGGSTYYADSVKGRFTISRDNAKNTVYLQMNSLKPEDTAVYYCAKVNSYGPVPDRYDYWGQGTQVTVSS | high polyreactivity |
| QVQLVESGGGLVQAGGSLRLSCAASGGIFGTYAMGWYRQAPGKEREFVAAITSGDSTYYADSVKGRFTISRDNAKNTVYLQMNSLKPEDTAVYYCAVGSTDRVSAQGSYFTYDYWGQGTQVTVSS | low polyreactivity |
| QVQLVESGGGLVQAGGSLRLSCAASGSTFVKYVMGRYRQAPGKERELVAAISRSSVRTYYADSVKGRFTISRDNAKNTVYLQMNSLKPEDTAVYYCAVVLSTYSYADYDYWGQGTLVTVSS | high polyreactivity |
| QVKLVESGGGLVQAGGSLRLSCAASGFIFLLYDMGWYRQAPGKERELVAANTSDGTTNYADSVKGRFTISRDNAKNTVYLQMNSLKPEDTAVYYCAADDEPYVYEVTAYLGYEYWGQGTQVTVSS | high polyreactivity |
| QVQLVESGGGLVQAGGSLRLSCAASGSTFTSYAMGWYRQAPGKERELVAAITSRGGTSYADSVKGRFTISRDNAKNTVYLQMNSLKPEDTAVYYCAARATYKKYPYVKWYDYWGQGPQVTVSS | high polyreactivity |
| QFQLVESGGGLVQAGGSLRLSCAASGIILAYYAMGWYRKEPGKERELVSSINRSGGSTYYADSVKGRFTISRDNAKNTVYLQMISLKPEYTAVYYCAATNRGVGQRSYRYYYWGQGTQVSVSS | high polyreactivity |
| QVQLVESGGGLVQAGGSLRLSCAASGSTLVGYVMGWYRQAPGKERELVAAITTVGSTYYADSVKGRFTISRDNAKNTVYLQMNSLKPEDTAVYYCAADRSDLAEEGYAGYDYWGQGTQVTVSS | low polyreactivity |
| QVQLVESGGGLVQAGGSLRLSCAASGIIFYDNALGWYRQAPGKERELVAALDSDGSTDYADSVKGRFTISRDNAKNTVYLQMNSLKPEDTAVYYCAADLVWYASGRYIYRGYDYWGQGTQVTVSS | low polyreactivity |
| QVQLVESGGGLVQAGGSLRLSCAASGSIFYLYAMGWYRQAPGKERELVAAITSIGGSTYADSVKGRFTISRDNAKNTVYLQMNSLKPEDTALYYCNTDEYPLTVQVQYYYWGQGTQVTVSS | low polyreactivity |
| QDQLVESGGGLVQAGGILRLSCAASGRTFLPNAMGWYRQSPGKEREFVASINGDGTTYYADSVKGRFTISRDNAKNTVYLQMNSLKPEDTAVYYCAKDRDFSSPPTESGFDFWGQGTQVTVSS | low polyreactivity |
| QVQLVESGGGLVQAGGSLRLSCAASGITFEKYAMGWYRQAPGKERELVAAITSSGGSTYYADSVKGRFTISRDNAKNTVYLQMNSLKPEDTAVYYCKARYYYADRTSGGYYYWGQGTQVTVSS | high polyreactivity |
| QVQLVESGGGLVQAGGSLRLSCAASGYTFYKYAMGWYRQAPGKEREFVADITQSGGSTYYADSVKGRFTISRDNAKNTVYLQMNSLKPEDTAVYYCNAAYSYRPDPKGYDYWGQGTQVTVSS | low polyreactivity |
| QVQLEESGGGLVQAGGSLRLSCAGSGNIFPSYALGWYRQAPGKERELVAAITYSAVSTYYADSVKGRFTISRDNAKNTVYLQMNSLKPEDTAVYYCAKETTEVPGVGSQEMDFWGQGTQVTVSS | low polyreactivity |
| QVQLVESGGGLVHAGGSLRLSSAASGRIFWYYALGWYRQPPGKERELVASIRGSGGSTYADSVKGRFTVSRENAKNTVYLPMNSLKPEDTAVYYCAASGRQRGHPMYYWRQGTQVTVSS | high polyreactivity |
| QVQLVESGGGLVQAGGSLRLSCAASGSTFYGYAMGWYRQAPGKERELVAAISGGGSTNYADSVKGRFTISRDNAKNTVYLQMNSLKPEDTAVYYCAARTTVYRRYGRNYWGQGTQVTVSS | high polyreactivity |
| QVQLVESGGGLVQAGGSLRLSCAAYGRTSRRNAMGWYRQAPGKERELVAAINRTGGTTYYADYVKGRFTISRDNAKNTVYLQMNSLKPVVNAVYYCAAGAPLSTPRGTTYRYYYWGQGTQVTVSS | high polyreactivity |
| QVQLVESGGGLVQAGGSLRLSCAASGLTFYYYAMGWYRQAPGKERELVAAISCSGGSTYYADSVKGRFTISRDNAKNTVYLQMNSLKPEDTAVYYCAAEGDYFLWYRYDYWGQGTQVTVSS | high polyreactivity |
| QVQLVESGGGLVQAGGSLRLSCGASGRTFGHYDLGLYRQEPGTEREFVANIRQSTGSTDYADSVKGRFTISRDNAKITVYLQMNSLKPEDTEVYYCASPWYYYVEHRQGSYILDYWGQGTQVTVSS | low polyreactivity |
| QVQLVESGGGLVQAGGSLRLSCAASGFIFWYYAMGWYRPAPGQERELVAAIRRGGSTNYADSVKGRFTISRDNAKNTVYLQMNSLKPEDTAVYYCAADVPRDTFDSWGQGTQVTVSS | low polyreactivity |
| QVQLVESGGRLVQSGGSLRLSCAASGRTIVENAMGLYRQAPGKEREFVAAISYKGGSTYYADSVKGRFTISRDNAKNTVYFQMNSLNPEDTAVYYCAADPNYGYDYWGQGTQVTVST | low polyreactivity |
| QVQLVESGGGLVQAGGSLRLSCAASGNTFRWYAMGWYRQAPGKERELVATISRRGGITYYADSVKGRFTISRDNAKNTVYFQMNSLKPEDTAVYYCAAYSGSGLGAYDYWGQGTQVTVSS | high polyreactivity |
| QVQLVESGGVLVQAGGSLRLSCAATGYIFHLYGMGWYRQAPGKERELVARITYRRGSTYYADSVKGRFTISRDNAKNTVYLQMNSLKPEDTAVYYCAKRRGYGYNYWGQGTQVTVSS | high polyreactivity |

| Sequence | polyreactivity (PSR sort gate) |
| --- | --- |
| QVQLVESGGGLVQAGGSLRLSCAASGSTFLYYAMGWSRQAPGKEMELVAAISGSGGSTYYADSVKGRFTISRDNAKNTVYLQMNSLKPEDTAVYYCNAVARRHGLGPYDYWGQGTQVTVSS | high polyreactivity |
| QVQLVESGGGLVQAGGSLRLSCAASGSIFHPYTMGWYRQAPGKERELVAAISWSGGNTNYADSVNGRFTISRDNAKNTVYLQMNSLKPDDTAVYYCNKATNLSGGYDSWGQGTQVTVSS | low polyreactivity |
| QVQLVESGGGLVQAGGSLRLSCAASGFTFTWYAMGWYRQAPGKERELVATISRSGGRTYYADSVKGRFTISRDNAKNPVYLQMNSLKPEVTAVYYCAADTRNYPRYDYWGQGTQVTVSS | high polyreactivity |
| QVHLVESGGGLVQAGGSLRLSCAASGFTLFGYAMGWYRQAPGKERELVAAISKDGGSTYYADSVKGRFTISRDNAKNTVYLQMNSLKPEDTAVYYCAARVKRPQTGYDRRYGYWGQGTQVTVSS | high polyreactivity |
| QVQLVESGGGLVQAGGSLRLSCAASGSTFDRYAMGGYIQAPGKERELVAAISWSGGSTYYADSVKGRFTISRDNAKNTVYFQMNSLKPEDTAVYYCASPYYYLHNQRYWGYDYWGQGTQVTVSS | high polyreactivity |
| QVHLVESGGGLVQAGGSHRLSCAASGSISFIYAMGWYIQAPGKERELVAAITSSGGSTYYADSVKGRFTISRDNAQNTVYLQMNSLKPDDTAVYYCAAERWTSRHYSGNDYWGQGTQVTVSS | low polyreactivity |
| QVQLVESGGGLVQAGGSLRLSCAASGSTLVANAMGWYRQAPGKERELVARITSGTSTYYADSVKGRFTISRDNAKNTVYLQMNSLKPEDTAVYYCAAGRWTRRRTYDSWGQGTQVTVSS | high polyreactivity |
| QVQLVESGGGLVQAGGSLRLSCAASGRTFYYYAMGWYRQAPGKEWELVAAIRGGGGSTYADSVKGRFTISRDNAKNTVYLQMNSLKPEDTAVYYCNVVRTGRYPGFLTFDYWGQGTQVTVSS | high polyreactivity |
| QVQLVESRGGLVQAGCSLRLSCAASGSIFLHKAMGWYRQAPGKERELVAVITSRGGSTYYADSVKGRFTISRDNAKITVYVQMNSLNPEDPAVYYCAAPDYHKRTSRGDYWGQGTQVTVSS | low polyreactivity |
| QVQLVESGGGLVQAGGSLRLSCAASGSIFLVYSMGWYRQAPGKERELVAGITSDDSTNYADSVKGRFTISRDNAKNTVYLQMNSLKPEDTAVYYCAKDSLVWYIVDLGYWGQGTQVTVSS | low polyreactivity |
| QDQLVESGGGLVQAGGIHRLICDSSGFIFWDNAMGCSRQAPGKEREFVAAISQRCTRTYYADSVKGRFTISRDNAKKTVFFPLNSLKPEDTGVYYCNRGGWRQFDSWGQGTQVTVSS | high polyreactivity |
| QVQLVESGGGLVQAGGSLRLSCAASGGTFSPYDMGWYRQAPGKERELVASITGSGGSTYYADSVKGRFTISRGNAKNTVYLQMNSLKPEDTAVYYCAAQGYCTYWPYLLRLYEYWGHGTQVTVSS | low polyreactivity |
| QVQLVESGGGLVQAVGSLRLSCAASGSIFRKYVMGWYRQAPGKERELVAVISSGTGTYYADSVKGRFTISRDNAKNSVYLQMNSLKPEDTAVYYCAAKYFGKWYKYYYWGQGTQVTVSS | high polyreactivity |
| QVQLEESGGGLVQAGGSLRLSCAASGRIFVRNGMGWYRQAPGKESELVPAITSAGSTNYADSVKGRFTISRDNAKNTVYLQMNSLIPEDTAVYYCATEPSGYYDSYYYFTYSDNYWGQGTQVTVSS | low polyreactivity |
| QVQLVESGGGLDQAGGSLRLSCAASGFIYSSYGMGWYRQAPGKERELDAAISRSGGSTYYADSVKGRFTISRDNAKNTVYLEMNSLKPEDTAVYYCATAYSWRNADWFAYSYDYWGQGTQVTVSS | low polyreactivity |
| QVQLVESGGGLVQAGGSLRLSCAASGLTFPYYAMGWYRQAPGKERELVAGISDSGDSTYYADSVKGRFTISRDNAKNTVYLQMNSLKPEDTAVYYCNAYFRYSYDYWGQGTQVTVSS | high polyreactivity |
| QVQLEESVGGLVQAGGSLRLSCAASGRIFAAYAMGWYRQEPGKERELVAAITGSGGRTYYADSVKGRFTISRDNAKNTVYLQMNSLKPEDTAVYYCAAESTPYSSVDRVAVYYWGQGTQVTVSS | high polyreactivity |
| RVQLVESGGGLVQAGGSLRLSCAASGSIFLIYAMGWYRQAPGKERELVAAISTGDSTYYADSVKGRFTISRDNAKNTVYLQMNSLKPEDTAVYYCAADTYSYEVPWWSAGMDYWGQGTQVTVSS | high polyreactivity |
| QVQLVESGGGLVQPGGSLRLSCAASGSTFGGYAKGWYRQAPGQERELVAAITWDTGTTYYADSVKGRFTISRDNAKNTVYLQMNSLKPEDTAVYYCAAVGSTTTGVRRRGYWGQGTQVNVSS | high polyreactivity |
| QVQLVESGGGLVQAGGSLRLSCAASGSTFVINAMGWYRQAPGKEREFVAAISYSRGITYYADSVKGRFTISRDNAKNYVDLQMNSLKQEDTAVYYCAVSPFENRDSGYDYWGQCTQVTVSS | low polyreactivity |
| QVQLVESGGGLVQAGGSLRLSCAASGSTFTWYAMGWSRQAPGKERELVADISYGGGSTYYADSVKGRFTISRDNAKNTVYLQMNSLKPEDTAVYYCAAESIPYYRYDYWGQGTQVTVSS | low polyreactivity |
